Assay results published in the nanobody polyreactivity screen of Harvey et al. (2022).

Assay: yeast display, Sf9 membrane polyspecificity reagent, FACS + sequencing; frameworks hold sequencing errors
In short: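 After 36–48 hours of galactose induction, yeast (Saccharomyces cerevisiae BJ5465) displaying a synthetic nanobody library were stained at 4 °C for 1 hour with 10% biotinylated, detergent-solubilized Sf9 membrane reagent. Streptavidin microbeads enriched the stained cells before FACS sorting into low and high (top ~1%) gates on anti-HA and streptavidin fluorescence. Each clone's polyreactivity label reflects its gate of origin.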

| Sequence | polyreactivity (PSR sort gate) |
| --- | --- |
| QVQLVESGGGLVQAGGSLRLSCAASGRIFDDYAMGWYRQAPGKEREFVAAISRSGASTYYADSVKGRFTISRDNAKNTVYLQMNSLKPEDTAVYYCAARAGANYRMDYWGQGTQVTVSS | high polyreactivity |
| QVQLVESGGGLVQAGGSLRLICAASGRTFAYNAMGWYRQAPGKERELVAAISYRGTTTYYADSVKGRFTISRDNAKNTVYLQMNSLKPEDTAVYYCNKVGTRFSAYSSGFVLSEYYYWGQGTQVTVSS | high polyreactivity |
| QVQLVESGGGLVQAGGSLRLSCAASGITFGVYGKGWYRQEPGKERELVAAISRTGGSTYYADSVKGRFTISRDNAKNTVYLQMNSLKPEDTAVYYCNARPVGRVIGDYWGQGTQVTVSS | high polyreactivity |
| QVQLVESGGGLVQAGGSLRLSCAASGRTFGIYAMGWYRQAPGKERELVATISWRGGSTYYADSVKGRFTISRDNAKNSVYLQMNSLKPEDTAVYYCAAGYYPYWGQGTQVTVSS | low polyreactivity |
| QVQLVESGGGLVQAGGSLRLSCAASGSTFYRYAMGWYRQAPGKERELVAAISYRGGSTYYADSVKGRFTISRDNAKNTVYLQMNSLKPEDTAVYYCNKRSTRRYDYWGQGTQETVSS | high polyreactivity |
| QVQLVESGGGLVQAGGSLRLSCAASGITFYFYAMGWYRQAPGKERELVARITSRGTRTYYADSVKGRFTISRDNAKNTVYLQMNSLKPEDTAVYYCAAGVSWDDYYWGQGTQVTVSS | high polyreactivity |
| QVQLVESGGGLVQAGGSLRLSCAASGFISARYAMGWYRQAPGKERELVAGISGGGGRTYYADSVKGRFTISRDNAKNTVYLQMNSLKPEDTAVFYCAATLQSRDRRFNYWGQGTQVTVSS | high polyreactivity |
| QVHLVESGGGLVQAGGSLRLSCAASGRIFTYYAMGWYRQAPGKERELVAAINSRGGRTYYADSVKGRFTISRDNAKNTVYLQMNSLKPEDTAVYYCNKAVYFAWGWGLRDYDYWGQGTQVTVSS | high polyreactivity |
| QVQIVESGGVLVQPGGILRLSCAASGFTFDAYDMGWYRQAPGKERELVAANSWRGIDTTYADSVKWRFTISRDNAKNPVFLQMNSLKPEDTAVYYCAEFVSDATVGTSKGLDYWGQGTQVTVSS | low polyreactivity |
| QVQLVESGGGLVQAGGSLRVSCAASGSIFGTYAMGWYRPAPGKERELVAAITSDGVDTYYADSVKGRFTISRDNAKNTVYLQMNSLKPEDTEVYYCAAEYEGLYGYGYWGQGTQVTVSS | high polyreactivity |
| QVQLVESGGGLVQAGGSLRLSCAASGRTFWLYAMGWYRQAPGKARELVASITRDGTSTYYADSVKGRFTISRDNPKNTVYLQMNSLKPEDTAVYYCAAVYHSKSRTIYWGQGTQVTVSS | high polyreactivity |
| QVQLVESGGGLVQAGGSLRLSCAASGFTFYYYTMGWYRQAPGKEMELVADISSGDRTYYADSVKGRFTISRDNAKNTVYLQMNSLKPEDTAVYYCAAPAKYYTRFGHYILNQDYDSWGQGTQVTVSS | low polyreactivity |
| QVQLEESGGGLVQAVGIIRLSCGASVSIFDAYAIGWYRKAPGKETELVASITYGGRTNYADSVEGRFTISRDNAKNTVYLQMNSLKPEDTAVYYCAAGGGYYYRYHRYPRGYWGQGTQVTVTS | high polyreactivity |
| QVQLVESGGGLVQAGGSLRLSCYASGRTFAGYVMGWYRQAHGKERELVAAINASGGSTYYADSVKGRFTISRDNAKNTVYLQMNSLKPEDTAVYYCAAARLGSDITRRYYYWGQGTQVTVSS | high polyreactivity |
| QVQLVESGGGLVQAGGSLRLSCAASGRIFYPYAMGWYRQAPGKERELVAAISGSGARTYYADSVKGRFTISRDNAKHTVYLQMNSLKPEDTAVYYCARYQSNSDDYWGQGTQVTVSS | high polyreactivity |
| QVQHVESGGGLVQAGGSLRLSCAASGITFWSNAKGWYRQAPGKEREMVAAITSSGGSTYYADSVKGRFTISRDNAKNTVYLHMNSLKPEDTAVYYCAAPISSSAGWDSYDYWGQGTQVTVSS | low polyreactivity |
| QVQLVESGGGLVQAGGSLRLSCAASGSIFYSYAMGWYRQAPGKERELVASINWSGASTYYADSVKGRFTISRDYAKNTVYLQMNSLKPEDTAVYYCAADWWGYDGRYDYWGQGTQVTVSS | high polyreactivity |
| QVQLVESGGGLVQAGGSLRLSCAASGRTLAPYAMGWYRQAPGKERELVAISTIGGSTYYADSVKGRFTISRDNAKNTVFLQMNSLKPEDTAVYYCNADATDSYPEKDEHDSWGQGTQVTVSS | low polyreactivity |
| QVQLVESGGGLVQAGGSLRLICDASGRTFVRYAMGWYRQAPGKERELVAAITRSASTYYADSVKGRFTISRDNAKNTVYLQMNSLKPEDTAVYYCNAGRKYWFGRAGGYDYWGQGTQVTVSS | high polyreactivity |
| QVQLVESGGGLVQAGGSLRLSCAASGRTFVSYAMGWYRPAPGKERELVAGISWSGDSTYYADSVKGRFTISRDNAKNTVYLEMNSLKPEDSAVYYCAAYGPFIYGGHHYNYWGQGTQVTVSS | low polyreactivity |
| QVQLVESGGGLVQAGGSLRLSCAASGSTFILNAMGWYRQAPGKEWELVAAISRSGGNTYYADSVKGRFTISRDIAKNTVYLQMNSLKPEDTAVYYCAATRRSHYYYWGQGTQVTVSS | high polyreactivity |
| QVQLVESGGGLVQAGGSLRLSCAASGLTFRKYAMGWYRQAPGKERELVAAITRGGSTNYADSVKGRFTISRDNAKNTVYLQMNSLKPEDTAVYYCAAQYTYRFPYPGYATTHDYWGQGTQVTVSS | high polyreactivity |

| Sequence | polyreactivity (PSR sort gate) |
| --- | --- |
| QVQLVESGGGLVQAGGSLRLSCAASGFIFSYYAMGWYIQEPGKERELVAAITVTGGNTYYADSVKGRFTISRDNAKNTVYLQMNSLIPEDTAVYYCAAVVRGPGVSVYYWGLGTQVTVSS | low polyreactivity |
| QVQLVDSGGGLVQAGGSLRLSCAASGLTIYAYAMGWYRQAPGKERELVAAISSGGSTSYADSVKGRFTISRDNAKNTVYLQMNSLKPEDTAVYYCAARPKSSRFFGWGYNYWGQGTQVTVSS | high polyreactivity |
| QVQLVESGGGLVQAGGSLRLSCAASGLTFDVYTMGWYRQAPGKEREFVAGITSGGSTDYADSVKGRFTISRDNAKNTVYLQMNSLKPEDTAVYYCNKPFPYYPDGPNGYDYWGQGTQVTVSS | low polyreactivity |
| QVHLQESGAGLEQAGGSLRLSCAASGYISDIGTMGCYRQAPGKEREFVATIVVGSTTNYADSVKGRFTISRDNAKNTLYLQPESGRYRGVLLRGWLLAVGKFTYWGQGTQETVSS | low polyreactivity |
| QVQLVESGGGLDQAGGSLRLSCAASGSIFSYYAMGWYRPAPGKERELVADNRWSGGSTYYADSVKGRFTISRDKAKNTVYLQMNSLKPEDTAVYYCNTLYLVYLYWTSPTPSDLFDYWGQGTQVTVSS | low polyreactivity |
| QVQLQESGGGLVQAGGSLRLSCAASGSNFDTPTMGWYRQAPGKERELVASIAYDDNTYYADSVKGRFTISRYNAKNTVYLQMNSLKPGDTAVYYCAVTDRIYYYFVYWGQGTRVTVSS | high polyreactivity |
| QVQLVESGGGLVQAGGSLRLSCAASGFIFGAYAMGWYRQAPGKERELVAAITKSGGRTYYADSVKGRFTISRDNAKNTVYLQMNSLKPEDTAVYYCAAVTRYPGEYDYWGQGTQVTVSS | high polyreactivity |
| QVQLVESGGGLVQAGGSLRLSCAASGSTLVIYAMGWYRQAPGKEREFVAAIRWSTGRTYYADSVKGRFTISRDNAKNTVYLQMNSLKPEDTAVYYCNASYWAPNSLPDGFRYDSWGQGTQVTVSS | high polyreactivity |
| QVQLVESAGGLVQAGGSLRLSCAASGFTFVYYVMGWYRQAPGKERELVAAINAGGGSTYYADSVKGRFTISRDNAKNTVYLQMNSLIPEDTAVYYCIARVRVRLGRNWSSYYDWGQCTQVTVSS | high polyreactivity |
| QVQLVESGGRLVQAGGTLRLSCAASGNIFFVYDMGWYRQPPGKESELVAAISWSGGSTYADSVKGRFTISRDNAKNTVYLQMNSLKPEDTAVYYCAADVAYVEYDYWGQGTQVTVSS | low polyreactivity |
| QVQLVESGGGLVQAGGSLRLSCAASGITFYEYAMGWYRQAPGKERELVATITSGGNTNYADSVKGRFTISRDNAKNTVYLQMNSLKPEDTAVYYCNKEWDGDGYTDDWDYDYWGQGTQVTVSS | low polyreactivity |
| QVQLVESGGGLVQAGGSLRLSCAASGITFPANARGWYRQAPGKERELVADISESDGSTYYADSVKGRFTISRDNAKNTVFLQMNSLKPEDTAVYYCAADGTSGTRSDYWGQCTQVTVSS | low polyreactivity |
| QLQLVESGGGLVQAGGSLRLSCAASGSIFFGNVMGWYRQAPGKERELVAAINTDGRTYYADSVKGRFTISRDNAKNTVYLQMNSLKPEDTAVYYCAARKGYRYYYWGQGTQVTVSS | high polyreactivity |
| QVQLVESGGGLVQAGGSLRLSCAASGFTFGNNAMGWYRQAPGKERELVAGISRTGGRTYYADSVKGRYTISRDNAKNTVYFQMNSLKPEDTGVYYCNADSTLYTGYDYWGQGTQVTVSS | high polyreactivity |
| QVQLVESGGGLVQAGGSLRLSCAASGSTFTRNAMGWYRQAPGKERELVATISRSGGSTYYADSVKGRFTISRDNAKNTVYLQMNSLKPEDTAVYYCARPYQYYKFYSHDYWGQGTQVTVSS | high polyreactivity |
| QVQLVESGEGLVQAGGSLRLSCAASGIFPYNAMGWYRQAPGKEREFVAGISRRGGSTYYADSVKGRFTISRDNAKNTVYLQMNSLKPEDTAVYYCAAGTYHKVVRRWASYYYWGQGTQVTVSS | high polyreactivity |
| QVQLVESGGGLVQAGGSLRLSCAASGGILNYYAMGWYRQAPGKERELVAAITGIGGSTSYADSVKGRFTISRDNAKNTVYLQMNSLKPEDTAVYYCAAEATSSYYVPDYDYWGQGTQVTVSS | low polyreactivity |
| QVQLVESGGGLVQAGGSLPLSCAASGSTFKQNVMGWYIQAPGKERELVAAITSNDDRTYYADSVKGRFTISRDNAKNTFYLQMNSLKPEDTAVYYCAVESLRDVFEYDYWGQGTQVTVSS | low polyreactivity |
| QVQLVESGGGLVQAGGSLRLSCAASGSTFDPYAMGWYRQAPGKERELVAAITSGGGTKYADSVKGRFTISRDNAKNTVYLQMNSLKPEDTAVYYCATDIRAEHGYWGQGTQVTVSS | low polyreactivity |
| QVQLVESGGGLVQAGGSLRLSCAASGRIFGRYAMGWYRQAPGKERGLVAAITRRGGNTYYADSVKGRFTISRDNAKNTVYLQMNSLKPEDTAVYYCNDDTSTYAIRGQWSWYDYWGQGTQVTVSS | high polyreactivity |
| QVQLVESGGGLVQAGGSLRLSCAASGSIFSSNAMGWYRQAPGKDRELVASISWTGGNTYADSVKGRFTISRDNAKNTVYLQMNSLKPEDTAVYYCNAGRSWDYWYGYDYWGQGTQVTVSS | low polyreactivity |
